Data published in patent US11015206B2, “Compositions and methods comprising sequences having hydroxyphenylpyruvate dioxygenase (HPPD) activity” (PIONEER HI-BRED INTERNATIONAL, INC., priority 2014, dated 2021).
Changes are numbered by the printed parent chain.

B1: R7-9070: shuffled maize HPPD, Round 7, variant 9070 (SEQ ID NO:2); backbone for saturation mutagenesis (protein)
chain: MGPTPTATAAGAAVAAASAAEQAAFRLVGHRNFVRFNPRSDRFQTLAFHHVELWCADAASAAGRFSFALGVPLAARSDLSTGNSAHASLLLRSGSLSLLFTAPYAHGADAATAALPSFSAAAARRFAADHGLAVRAVALRVADAEDAFRASVAAGARPAFGPVDLGRGFRLAEVELYGDVVLRYVSYPDGAAGEPFLPGFEGVASPGAADYGLSRFDHIVGNVPELAPAAAYMAGFTGFHEFAEFTTEDVGTTESGLNSMALANNSENVLLPLNEPVHGTKRRSQIQTFLDHHGGPGVQHIALASDDVLRTLREMRARSAMGGFEFLPPPLSDYYDGVRRCAGDVLTEAQINECQELGVMVDRDDQGVLLQIFTKPVGDRPTFFLEIIQRIGCMEKDEKGQEYQKGGCGGFGKGNFGQLFKSIEDYEKSLEAKQAAAAATAQGS
modifications: Zea mays variant form created by artificial means.
notes: backbone for saturation mutagenesis
B2: P056028-G-01 (protein)
chain: B1 chain with Y211L, S214N, R340K, Q366E, A432K, Q434R
modifications: Zea mays variant form created by artificial means.
B3: P056028-D-03 (protein)
chain: B1 chain with L182M, S214N, Q366E
modifications: Zea mays variant form created by artificial means.
B4: 9070Q366E (protein)
chain: B1 chain with Q366E
modifications: Zea mays variant form created by artificial means.
B5: P056028-B-02 (protein)
chain: B1 chain with P206S, E356K, Q366E, K428R, A438V
modifications: Zea mays variant form created by artificial means.
B6: P056028-G-01R (protein)
chain: B1 chain with Y211L, S214N, R340K, Q366E, M394R, A432K, Q434R
modifications: Zea mays variant form created by artificial means.
B7: P056028-A-03 (protein)
chain: B1 chain with A191G, Y211L, Q366E, A432R, Q434R
modifications: Zea mays variant form created by artificial means.
B8: P056028-A-01 (protein)
chain: B1 chain with Q366E, Q434R
modifications: Zea mays variant form created by artificial means.
B9: P056028-B-09 (protein)
chain: B1 chain with G337D, Q366E, M394V, Q434R
modifications: Zea mays variant form created by artificial means.
B10: Z. mays wt: maize wild-type HPPD, SEQ ID NO:1 (glycine for proline at position 2) (protein)
chain: MGPTPTAAAAGAAVAAASAAEQAAFRLVGHRNFVRFNPRSDRFHTLAFHHVELWCADAASAAGRFSFGLGAPLAARSDLSTGNSAHASLLLRSGSLSFLFTAPYAHGADAATAALPSFSAAAARRFAADHGLAVRAVALRVADAEDAFRASVAAGARPAFGPVDLGRGFRLAEVELYGDVVLRYVSYPDGAAGEPFLPGFEGVASPGAADYGLSRFDHIVGNVPELAPAAAYFAGFTGFHEFAEFTTEDVGTAESGLNSMVLANNSENVLLPLNEPVHGTKRRSQIQTFLDHHGGPGVQHMALASDDVLRTLREMQARSAMGGFEFMAPPTSDYYDGVRRRAGDVLTEAQIKECQELGVLVDRDDQGVLLQIFTKPVGDRPTLFLEIIQRIGCMEKDEKGQEYQKGGCGGFGKGNFSQLFKSIEDYEKSLEAKQAAAAAAAQGS
modifications: Zea mays

System: 4-hydroxyphenylpyruvate dioxygenase (HPPD)
Test: OFF rate ratio: release of inhibitor from pre-formed enzyme-inhibitor complex
Type: biochemical, Z. mays
Conditions: for OFF ratio (parameters with tembotrione): Table 5; for Insensitivity, isoxaflutole (DKN), Rate ratio OFF: inhibitor diketonitrile form of isoxaflutole (DKN); for Insensitivity, mesotrione, Rate ratio OFF: inhibitor mesotrione; for Insensitivity, sulcotrione, Rate ratio OFF: inhibitor sulcotrione; for Insensitivity, tembotrione, Rate ratio OFF: inhibitor tembotrione; for Insensitivity, topramezone, Rate ratio OFF: inhibitor topramezone
Procedure, shortened: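 Inhibitor release from pre-formed complex (enzyme 7.2 μM, inhibitor 8 μM, 1 h RT) tracked as accelerating HPPD activity at 320 nm over 12 min, coupled via 50 nM HGD with 100 μM HPP at pH 7. OFF rate ratio: steady-state velocity relative to uninhibited initial velocity.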

[1] = Table 7, tembotrione, combinatorial variants

Molecule	OFF ratio (parameters with tembotrione) (tembotrione)	OFF rate ratio [1]	Insensitivity, isoxaflutole (DKN), Rate ratio OFF	Insensitivity, mesotrione, Rate ratio OFF	Insensitivity, sulcotrione, Rate ratio OFF	Insensitivity, tembotrione, Rate ratio OFF	Insensitivity, topramezone, Rate ratio OFF	OFF rate ratio (mesotrione)	time span to reach the steady state (dissociation from inhibitor) (mesotrione, enzyme 240 nM)
B1	0.21	0.116	0.20	0.89	0.71	0.22	0.25	0.83	–
B2	–	0.320	0.42	1.00	1.14	0.47	0.57	–	–
B3	–	0.453	0.40	1.00	1.11	0.45	0.58	–	–
B4	–	0.273	0.39	1.00	1.13	0.33	0.57	–	–
B5	–	0.469	0.43	1.00	1.00	0.47	0.53	–	–
B6	–	0.280	0.38	1.00	1.11	0.28	0.53	–	–
B7	–	0.243	0.43	1.00	0.93	0.40	0.47	–	–
B8	–	0.249	0.44	1.00	1.22	0.43	0.60	–	–
B9	–	0.187	0.33	1.00	0.88	0.35	0.48	–	–
B10	0.03	–	0.01	0.31	0.28	0.04	0.045	0.31	280 s
